The results in this text go back to article PMC5715344, “Structural enzymology comparisons of multifunctional enzyme, type‐1 (MFE1): the flexibility of its dehydrogenase part” (FEBS Open Bio, 2017).

What all share (assay): purified protein
Common to all, as to format: biochemical, Rattus norvegicus

Substrate in data set [1]: CC(=O)CC(=O)SCCNC(=O)CCNC(=O)[C@H](O)C(C)(C)COP(=O)(O)OP(=O)(O)OC[C@H]1O[C@@H](n2cnc3c(N)ncnc32)[C@H](O)[C@@H]1OP(=O)(O)O
The conditions noted are these: 0.1 mM NADH, 50 mM Tris/HCl pH 7.0, 50 mM KCl, BSA, 25 °C, dehydrogenase site.

Substrate in data set [2]: C[C@H](O)CC(=O)SCCNC(=O)CCNC(=O)[C@H](O)C(C)(C)COP(=O)(O)OP(=O)(O)OC[C@H]1O[C@@H](n2cnc3c(N)ncnc32)[C@H](O)[C@@H]1OP(=O)(O)O
The conditions noted are these: 1 mM NAD+, 50 mM Tris pH 9.0, 50 mM KCl, BSA, 25 °C, dehydrogenase site, substrate generated in situ from 2E-butenoyl-CoA by the enzyme's own hydratase site.

Substrate in data set [3]: C/C=C/C(=O)SCCNC(=O)CCNC(=O)[C@H](O)C(C)(C)COP(=O)(O)OP(=O)(O)OC[C@H]1O[C@@H](n2cnc3c(N)ncnc32)[C@H](O)[C@@H]1OP(=O)(O)O
The conditions noted are these: 50 mM Tris pH 9.0, 50 mM KCl, BSA, 25 °C, hydratase site.

B1: rat peroxisomal multifunctional enzyme, type-1 (rpMFE1) (Rattus norvegicus) (protein)
chain: MAEYLRLPHSLAMIRLCNPPVNAVSPTVIREVRNGLQKAGSDHTVKAIVICGANGNFCAGADIHGFSAFTPGLALGSLVDEIQRYQKPVLAAIQGVALGGGLELALGCHYRIANAKARVGLPEVTLGILPGARGTQLLPRVVGVPVALDLITSGKYLSADEALRLGILDAVVKSDPVEEAIKFAQKIIDKPIEPRRIFNKPVPSLPNMDSVFAEAIAKVRKQYPGVLAPETCVRSIQASVKHPYEVGIKEEEKLFMYLRASGQAKALQYAFFAEKSANKWSTPSGASWKTASAQPVSSVGVLGLGTMGRGIAISFARVGISVVAVESDPKQLDAAKKIITFTLEKEASRAHQNGQASAKPKLRFSSSTKELSTVDLVVEAVFEDMNLKKKVFAELSALCKPGAFLCTNTSALNVDDIASSTDRPQLVIGTHFFSPAHVMRLLEVIPSRYSSPTTIATVMSLSKKIGKIGVVVGNCYGFVGNRMLAPYYNQGFFLLEEGSKPEDVDGVLEEFGFKMGPFRVSDLAGLDVGWKIRKGQGLTGPSLPPGTPVRKRGNSRYSPLGDMLCEAGRFGQKTGKGWYQYDKPLGRIHKPDPWLSTFLSQYREVHHIEQRTISKEEILERCLYSLINEAFRILEEGMAARPEHIDVIYLHGYGWPRHKGGPMFYAASVGLPTVLEKLQKYYRQNPDIPQLEPSDYLRRLVAQGSPPLKEWQSLAGPHGSKL
notes: full length, 722 residues, pET15b recombinant; crystal model of molecule A starts at residue -4 (N-terminal vector/tag residues present); monomer
By Km is commonly meant the substrate concentration at which the rate is half of its maximum. Usually kcat stands for the maximal rate divided by the concentration of active sites. As usually defined, the kcat/Km is the second-order rate constant that governs catalysis at low substrate concentration. As to B1, in the data set “purified protein [1]”, the Km was found to be 44.0 ± 15.0 µM, the kcat is 23 ± 2.3 s⁻¹ and the kcat/Km was found to be 500000 M⁻¹ s⁻¹. Further, in the data set “purified protein [2]”, the Km stood at 3.6 ± 1.0 µM, the kcat came out at 1.7 ± 0.1 s⁻¹ and the kcat/Km was 500000 M⁻¹ s⁻¹. Moreover, in the data set “purified protein [3]”, the Michaelis constant (Km) worked out at 82.0 ± 18.0 µM, the kcat is 113 ± 33 s⁻¹ and the catalytic efficiency (kcat/Km) was 1.4e+06 M⁻¹ s⁻¹.
